Results taken from patent publication US20260327301 (published 2026).
Like-named read-outs stand apart in the source and are kept apart here.

T1: canine IL-31 (dog)
T1 chain: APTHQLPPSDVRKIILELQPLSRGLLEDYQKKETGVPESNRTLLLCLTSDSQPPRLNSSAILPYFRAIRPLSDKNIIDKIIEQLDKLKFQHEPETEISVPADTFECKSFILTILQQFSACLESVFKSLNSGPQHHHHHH

B1: 44B4-1 rabbit-derived (antibody, V domains shown)
VH: QSLEESGGRLVTPGTPLTLTCTASGFSLSNSYMGWVRQAPGKGLEYIGFIDTGGTTYYASWAKGRFTISRTSTTVDLKMTSPTTEDTATYFCAKGPDDYFFNLWGQGTLVTVSS
VL: DIVMTQTPASVEAAVGGTITINCQASESISSWLAWYQQKPGQPPKLLIYKASTLESGVPSRFKGSGSGTEFTLTISGVQCADAATYYCQVYYFSYNSYNFFGGGTEVVVK
B2: Caninized 35C9-1-H1L2 (antibody, V domains shown)
VH: EVQLVESGGDLVKPGGSLRLSCVASGFTFSSYWMSWVRQAPGKGLQWLSDIYATGSTYYANWATGRFTGSRDNAKNTLYLQMNSLTIEDTATYFCARHSSRSGIDFDLWGQGTLVTVSS
VL: EIVMTQSPASLSLSQEEKVTITCQASQSIGNYLAWYQQKPGQAPKQLIYRASTLASGVPSRFSGSGSGTDFTLTISDLECADVAVYYCQQGYDSNNVDNFFGQGTKVEIKR
B3: Chimeric Antibody 35C9-1 (antibody, V domains shown)
VH: QSLEESGGRLVTPGTPLTLTCTASGFSLSSYWMSWVRQAPGKGLEWIGDIYATGSTYYANWATGRFTGSKTSTTVDLTITSPTIEDTATYFCARHSSRSGIDFDLWGQGTLVTVSS
VL: AYDMTQTPASVEAAVGGTVTIKCQASQSIGNYLAWYQQKPGQPPKQLIYRASTLASGVPSRFKGSGSGTEFTLTISDLECADGATYYCQQGYDSNNVDNFFGGGTEVVVRR
B4: 35C9-1 rabbit-derived (antibody, V domains shown)
VH: QSLEESGGRLVTPGTPLTLTCTASGFSLSSYWMSWVRQAPGKGLEWIGDIYATGSTYYANWATGRFTGSKTSTTVDLTITSPTIEDTATYFCARHSSRSGIDFDLWGQGTLVTVSS
VL: AYDMTQTPASVEAAVGGTVTIKCQASQSIGNYLAWYQQKPGQPPKQLIYRASTLASGVPSRFKGSGSGTEFTLTISDLECADGATYYCQQGYDSNNVDNFFGGGTEVVVR
B5: 38E2-1 rabbit-derived (antibody, V domains shown)
VH: QSLEESGGRLVTPGTPLTLTCTASAFSLSGYYMGWVRQAPGKGLEYIGIIGGSSNTFYASWAKGRFTISKTPTTVDLKITSPTTEDTATYFCARHGDTDYISGTYFDLWGQGTLVTVSS
VL: AYHMTQTPASVEVPVGGTVTIKCQASQSISIYLAWYQQKPGQPPKLLIYRASTLASGVPSRFIGSGSGTEFSLTISDLECADAATYYCQQGYEDSNVESLFGGGTEVVVK
B6: Chimeric Antibody 38E2-1 (antibody, V domains shown)
VH: QSLEESGGRLVTPGTPLTLTCTASAFSLSGYYMGWVRQAPGKGLEYIGIIGGSSNTFYASWAKGRFTISKTPTTVDLKITSPTTEDTATYFCARHGDTDYISGTYFDLWGQGTLVTVSS
VL: AYHMTQTPASVEVPVGGTVTIKCQASQSISIYLAWYQQKPGQPPKLLIYRASTLASGVPSRFIGSGSGTEFSLTISDLECADAATYYCQQGYEDSNVESLFGGGTEVVVKR
B7: 19C7-1 rabbit-derived (antibody, V domains shown)
VH: QSVEESGGRLVTPGTPLTLTCTVSGFSLNSYAMGWVRQAPGKGLEYIGIINSSGSTWYATWVKGRFTISKTSTTVDLKMTSVTTEDTATYFCARNRDPFYITDMDLWGQGTLVTVSS
VL: QVLTQTPSSVSAAVGGTVTINCQASQNIYSYLSWYQQKPGQPPKLLIYRASTLASGVPSRFKGSGSGTEFTLTISGVECADAATYYCQQGDSYSDVDNIFGGGTEVVVK
B8: 30A11-1 rabbit-derived (antibody, V domains shown)
VH: QEQLKESGGGLVTPGGTLTLTCTASGFTISGYYMNWVRQAPGKGLEWIGFIYSPSTTYYANWAKGRFTISKTSTTVDLKITSPTTEDTATYFCARGHTTEIRLDLWGQGTLVTVSS
VL: AVLTQTPSPVSAAVGGTVSISCQSSESVYKNNRLSWFQQKPGQPPKLLIFDASTLASGVSSRFKGSGSGTQFTLTISGVQCDDAATYYCLGEFRDSSDNSFGGGTEVVVK
B9: 5H4-2 rabbit-derived (antibody, V domains shown)
VH: QSLEESGGDLVKPGASLTLTCTASGFTLSSDYYMCWVRQAPGKGLELIACITTSTVGTWYASWAKGRFTISKTSSTTVTLQMTSLTAADTATYFCGREDGTYADYFNLWGPGTLVTVSS
VL: AYDMTQTPASVEVAVGGTVTIKCQASQSISSWLAWYQQKPGQRPKLLIYRASTLASGVSSRFKGSGSGTQFTLTISGVECADAATYYCQQGYRSSNLDNAFGGGTEVVVK
B10: Chimeric Antibody 47C1-1 (antibody, V domains shown)
VH: QSVEESGGRLVTPGTPLTLTCTVSGFSLSTYAMNWVRQAPGKGLEWIGIIYSNGDGYYASWAKGRYTISKTSSTTVDLKVTSPTTEDTATYFCARGIYSQTTGYFNLWGQGTLVTVSS
VL: DIVMTQTPASVEAAVGGIVIIKCQASESIGNTLAWYQQKPGQPPKLLIYGASTLASGVSSRFKGSGSGTEVTLTISDLECADAATYYCQSYWSSTTTFRDTFGGGTEVVVKR
B11: Caninized 47C1-1-H3L3 (antibody, V domains shown)
VH: EVQLVESGGDLVKPGGSLRLSCVASGFSLSTYAMNWVRQAPGKGLEWISIIYSNGDGYYASWAKGRFTISRDNSKNTLYLQMNSLRAEDTAVYYCARGIYSQTTGYFNLWGQGTLVTVSS
VL: MDTRAPTQLLGLLLLWLPGARCEIVMTQTPASLSLSQEGKVTITCQASESIGNTLAWYQQKPGQPPKLLIYGASTLASGVPSRFSGSGSGTDFTFTINSLQPEDVATYYCQSYWSSTTTFRDTFGQGTKVEIKR
B12: 47C1-1 rabbit-derived (antibody, V domains shown)
VH: QSVEESGGRLVTPGTPLTLTCTVSGFSLSTYAMNWVRQAPGKGLEWIGIIYSNGDGYYASWAKGRYTISKTSSTTVDLKVTSPTTEDTATYFCARGIYSQTTGYFNLWGQGTLVTVSS
VL: DIVMTQTPASVEAAVGGIVIIKCQASESIGNTLAWYQQKPGQPPKLLIYGASTLASGVSSRFKGSGSGTEVTLTISDLECADAATYYCQSYWSSTTTFRDTFGGGTEVVVK
B13: Caninized 47C1-1-H2L2 (antibody, V domains shown)
VH: EVQLVESGGDLVKPGGSLRLSCVASGFSLSTYAMNWVRQAPGKGLEWISIIYSNGDGYYASWAKGRFTISRDNAKNTLYLQMNSLRAEDTAVYYCARGIYSQTTGYFNLWGQGTLVTVSS
VL: MDTRAPTQLLGLLLLWLPGARCEIVMTQTPASLSLSQEGKVTITCQASESIGNTLAWYQQKPGQPPKLLIYGASTLASGVPSRFSGSGSGTDFTFTINSLQPEDVATYYCQSYWSSTTTFRDTFGQGTKVEIKR
B14: Caninized 35C9-1-H1L1 (antibody, V domains shown)
VH: EVQLVESGGDLVKPGGSLRLSCVASGFTFSSYWMSWVRQAPGKGLQWLSDIYATGSTYYANWATGRFTGSRDNAKNTLYLQMNSLTIEDTATYFCARHSSRSGIDFDLWGQGTLVTVSS
VL: EIVMTQSPASLSLSQEEKVTITCQASQSIGNYLAWYQQKPGQAPKQLIYRASTLASGVPSRFKGSGSGTEFTLTISDLECADVAVYYCQQGYDSNNVDNFFGQGTKVEIKR
B15: Caninized 38E2-1-H3L3 (antibody, V domains shown)
VH: EVQLVESGGDLVKPGGSLRLSCVASAFSLSGYYMGWVRQAPGKGLEWISIIGGSSNTFYASWAKGRFTISKDNSKNTLYLQMNSLRAEDTAVYFCARHGDTDYISGTYFDLWGQGTLVTVSS
VL: EIVMTQSPASLSLSQGEKVTITCQASQSISIYLAWYQQKPGQPPKLLIYRASTLASGVPSRFSGSGSGTDFSFTITSLQPEDVATYYCQQGYEDSNVESLFGQGTKVEIKR
B16: 19D1-1 rabbit-derived (antibody, V domains shown)
VH: QSLEESGGRLVTPGTPLTLTCTASGFSLSSYWMSWVRQAPGKGLEWIGDIYASGSEYYASWVNGRFTGSKTSTTVDLKITSPTIEDTATYFCARHSSRSGIDFDLWGQGTLVTVSS
VL: AYDMTQTPASVEAAVGGTVTIKCQASQSISNYLAWYQQKPGQPPKQLIYRASTLASGVPSRFKGSGSGTEFTLTMSDLECADAATYYCQQGYDSNNVDNLFGGGTEVVVK
B17: Caninized 38E2-1-H3L2 (antibody, V domains shown)
VH: EVQLVESGGDLVKPGGSLRLSCVASAFSLSGYYMGWVRQAPGKGLEWISIIGGSSNTFYASWAKGRFTISKDNSKNTLYLQMNSLRAEDTAVYFCARHGDTDYISGTYFDLWGQGTLVTVSS
VL: EIVMTQSPASLSLSQGEKVTITCQASQSISIYLAWYQQKPGQPPKLLIYRASTLASGVPSRFSGSGSGTDFSFTISSLQPEDVATYYCQQGYEDSNVESLFGQGTKVEIKR
B18: 18E8-1 rabbit-derived (antibody, V domains shown)
VH: QSLEESGGRLVTPGTPLTLTCTASAFSLSGYYMGWVRQAPGKGLEYIGIIGGSSNTFYASWAKGRFTISKTPTTVDLKITSPTTEDTATYFCARHGDTDYISGTYFDLWGQGTLVTVSS
VL: AYHMTQTPASVEVPVGGTVTIKCQASQSISIYLAWYQQKPGQPPKLLIYKASTLASGVPSRFIGSGSGTEFSLTISDLECADAATYYCQQGYEDSNVESLFGGGTEVVVK
B19: 30G5-1 rabbit-derived (antibody, V domains shown)
VH: QSLEESGGRLVTPGGSLTLTCTVSGFSLSSYAMIWVRQAPGEGLEWIGTIDPSDNTDYASWAKGRFTISKTSSTTVDLKLTSLTTEDTATYFCASHSYDDYGRDVWNLWGQGTLVTVSS
VL: IVMTQTPSSKSVPVGDTVTINCQASQSVDNNNDLSWYQQKPGQPPKLLIYYTSSLPSGVPSRFKGSGSGTQFTLTISDLECDDAATYYCVGYKSSTTDATAFGGGTEVMVK

Tests used:
[1] = biological target: T1, canine IL-31; test: ELISA
[2] = biological target: T1, canine IL-31; test: BLI
[3] = biological target: T1, canine IL-31; test: ELISA
[4] = biological target: T1, canine IL-31; test: ELISA
[5] = biological target: T1, canine IL-31; test: BLI
[6] = biological target: T1, canine IL-31; test: BLI

Binder | EC50 [1] [µg/mL] | Kd [2] [nM] | EC50 [3] [µg/mL] | EC50 [4] [µg/mL] | Kd [5] [nM] | Kd [6] [nM]
B1 | 0.000232 | – | – | – | – | –
B2 | – | 389 | 0.158 | – | – | –
B3 | – | 11.9 | 0.103 | 0.105 | 11.9 | –
B4 | 0.0023 | 12.7 | – | – | 12.7 | 12.7
B5 | 0.000915 | 0.815 | – | – | 0.815 | 2.55
B6 | – | 2.49 | 0.0928 | 0.094 | 2.49 | –
B7 | 0.00321 | – | – | – | – | –
B8 | 0.00282 | – | – | – | – | –
B9 | 0.000841 | – | – | – | – | 113
B10 | – | 8.32 | 0.102 | 0.0985 | 8.32 | –
B11 | – | 15.5 | 0.105 | – | – | –
B12 | 0.00179 | 3.75 | – | – | 3.75 | 3.75
B13 | – | 15.1 | 0.113 | – | – | –
B14 | – | 495 | 0.19 | – | – | –
B15 | – | 5.35 | 0.0934 | – | – | –
B16 | 0.000196 | – | – | – | – | 43.3
B17 | – | 8.04 | 0.0978 | – | – | –
B18 | 0.00195 | – | – | – | – | –
B19 | 0.00208 | – | – | – | – | –
